Measurements as given in US20230114801A1 (SYSTIMMUNE, published 2023).

Assays:
human PD-L1 = target: T1, human PD-L1 (human, UniProt Q9NZQ7 19-238); assay: BLI (Octet), binder on AHC sensor; antigen conditions not stated
T1 construct: Soluble antigen in Octet; bought; also called human PD-L1 (Acro PD1-H5229)

CD19 = target: T2, CD19 (UniProt P15391 20-291, limits assumed); assay: as above
T2 sequence (looked up): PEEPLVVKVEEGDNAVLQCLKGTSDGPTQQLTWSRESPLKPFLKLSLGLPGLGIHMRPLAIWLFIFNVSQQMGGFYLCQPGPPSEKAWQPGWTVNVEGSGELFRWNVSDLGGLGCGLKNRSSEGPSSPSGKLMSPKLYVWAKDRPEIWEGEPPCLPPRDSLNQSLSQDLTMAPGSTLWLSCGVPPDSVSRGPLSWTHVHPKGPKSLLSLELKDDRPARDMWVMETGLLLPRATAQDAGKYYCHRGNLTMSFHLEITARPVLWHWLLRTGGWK

human 4-1BB = target: T3, human 4-1BB (human, UniProt Q07011 24-186, limits assumed); assay: as above
T3 construct: Soluble antigen in Octet; construct not described

human CD3 = target: T4, human CD3 (human, UniProt P07766 23-126; P04234 22-105); assay: BLI (Octet), binder on AHC sensor, His-tagged human CD3 (series from 200 nM or single 100 nM), 1:1 fit
T4 construct: also called His-tagged human CD3; human CD3 (Acro CDD-H52W1)

B1: SI-68P13 (other)
chain 1: EIVLTQSPSTLSVSPGERATFSCRASQSIGTNIHWYQQKPGKPPRLLIKYASESISGIPDRFSGSGSGTEFTLTISSVQSEDFAVYYCQQNNNWPTTFGPGTKLTVLGGGGSGGGGSGGGGSGGGGSQVQLQQSGPGLVKPSETLSITCTVSGFSLTNYGVHWIRQAPGKGLEWLGVIWSGGNTDYNTPFTSRFTITKDNSKNQVYFKLRSVRADDTAIYYCARALTYYDYEFAYWGQGTLVTVSSGGGGSGGGGSEVQLVESGGGLVQPGGSLRLSCAASGFTISTNAMSWVRQAPGKGLEWIGVITGRDITYYASWAKGRFTISRDNSKNTLYLQMNSLRAEDTAVYYCARDGGSSAITSNNIWGQGTLVTVSSASTKGPSVFPLAPSSKSTSGGTAALGCLVKDYFPEPVTVSWNSGALTSGVHTFPAVLQSSGLYSLSSVVTVPSSSLGTQTYICNVNHKPSNTKVDKRVEPKSCDKTHTCPPCPAPEAAGGPSVFLFPPKPKDTLMISRTPEVTCVVVDVSHEDPEVKFNWYVDGVEVHNAKTKPREEQYNSTYRVVSVLTVLHQDWLNGKEYKCAVSNKALPAPIEKTISKAKGQPREPQVYTLPPSRDELTKNQVSLSCAVKGFYPSDIAVEWESNGQPENNYKTTPPVLDSDGSFFLVSKLTVDKSRWQQGNVFSCSVMHEALHNHYTQKSLSLSPGGGGGSGGGGSDVVMTQSPSSVSASVGDRVTITCQASQNIRTYLSWYQQKPGKAPKLLIYAAANLASGVPSRFSGSGSGTDFTLTISDLEPGDAATYYCQSTYLGTDYVGGAFGGGTKLTVLGGGGSGGGGSGGGGSGGGGSEVQLVESGGGLVQPGGSLRLSCTASGFTISSYHMQWVRQAPGKGLEYIGTISSGGNVYYASSARGRFTISRPSSKNTVDLQMNSLRAEDTAVYYCARDSGYSDPMWGQGTLVTVSS
chain 2: ENVLTQSPASLSASPGERVTITCSASSSVSYMHWYQQKPGQAPKLWIYDTSKLASGVPSRFSGSGSGNDHTLTISSMEPEDFATYYCFQGSVYPFTFGQGTKVTVLGGGGSGGGGSGGGGSGGGGSQVTLKESGPGLVQPGQTLSLTCAFSGFSLSTSGMGVGWIRQPPGKGLEWLAHIWWDDDKRYNPALKSRLTISKDTSKNQVYLQMNSLDAEDTAVYYCARMELWSYYFDYWGQGTLVTVSSGGGGSGGGGSDVVMTQSPSTLSASVGDRVTINCQASESISSWLAWYQQKPGKAPKLLIYEASKLASGVPSRFSGSGSGTEFTLTISSLQPDDFATYYCQGYFYFISRTYVNSFGGGTKVEIKRTVAAPSVFIFPPSDEQLKSGTASVVCLLNNFYPREAKVQWKVDNALQSGNSQESVTEQDSKDSTYSLSSTLTLSKADYEKHKVYACEVTHQGLSSPVTKSFNRGECGGDKTHTCPPCPAPEAAGGPSVFLFPPKPKDTLMISRTPEVTCVVVDVSHEDPEVKFNWYVDGVEVHNAKTKPREEQYNSTYRVVSVLTVLHQDWLNGKEYKCAVSNKALPAPIEKTISKAKGQPREPQVYTLPPSRDELTKNQVSLWCLVKGFYPSDIAVEWESNGQPENNYKTTPPVLDSDGSFFLYSKLTVDKSRWQQGNVFSCSVMHEALHNRFTQKSLSLSPGGGGGSGGGGSDIQMTQSPSTLSASVGDRVTITCQASQSISSHLNWYQQKPGKAPKLLIYKASTLASGVPSRFSGSGSGTEFTLTISSLQPDDFATYYCQQGYSWGNVDNVFGGGTKVTVLGGGGSGGGGSGGGGSGGGGSEVQLLESGGGLVQPGGSLSLSCAASGFSFSSGYDMCWVRQAPGKGLEWIACIAAGSAGITYDANWAKGRFTISRDNSKNTLYLQMNSLRAEDTAVYYCARSAFSFDYAMDLWGQGTLVTVSS
notes: penta-miniGNC; D1 αEGFR, D2 αCD19, D3 αCD3 (Fab), D4 α4-1BB, D5 αPD-L1
Human PD-L1
  Kd: 1.04 nM
CD19
  Kd: 4.33 nM
Human 4-1BB
  Kd: 14.8 nM
Human CD3
  Kd: 25.9 nM

B2: SI-68P17 (other)
chain 1: DVVMTQSPSTLSASVGDRVTINCQASESISSWLAWYQQKPGKAPKLLIYEASKLASGVPSRFSGSGSGTEFTLTISSLQPDDFATYYCQGYFYFISRTYVNSFGGGTKVEIKGGGGSGGGGSGGGGSGGGGSEVQLVESGGGLVQPGGSLRLSCAASGFTISTNAMSWVRQAPGKGLEWIGVITGRDITYYASWAKGRFTISRDNSKNTLYLQMNSLRAEDTAVYYCARDGGSSAITSNNIWGQGTLVTVSSGGGGSGGGGSQVQLQQSGPGLVKPSETLSITCTVSGFSLTNYGVHWIRQAPGKGLEWLGVIWSGGNTDYNTPFTSRFTITKDNSKNQVYFKLRSVRADDTAIYYCARALTYYDYEFAYWGQGTLVTVSSASTKGPSVFPLAPSSKSTSGGTAALGCLVKDYFPEPVTVSWNSGALTSGVHTFPAVLQSSGLYSLSSVVTVPSSSLGTQTYICNVNHKPSNTKVDKRVEPKSCDKTHTCPPCPAPEAAGGPSVFLFPPKPKDTLMISRTPEVTCVVVDVSHEDPEVKFNWYVDGVEVHNAKTKPREEQYNSTYRVVSVLTVLHQDWLNGKEYKCAVSNKALPAPIEKTISKAKGQPREPQVYTLPPSRDELTKNQVSLSCAVKGFYPSDIAVEWESNGQPENNYKTTPPVLDSDGSFFLVSKLTVDKSRWQQGNVFSCSVMHEALHNHYTQKSLSLSPGGGGGSGGGGSDVVMTQSPSSVSASVGDRVTITCQASQNIRTYLSWYQQKPGKAPKLLIYAAANLASGVPSRFSGSGSGTDFTLTISDLEPGDAATYYCQSTYLGTDYVGGAFGGGTKLTVLGGGGSGGGGSGGGGSGGGGSEVQLVESGGGLVQPGGSLRLSCTASGFTISSYHMQWVRQAPGKGLEYIGTISSGGNVYYASSARGRFTISRPSSKNTVDLQMNSLRAEDTAVYYCARDSGYSDPMWGQGTLVTVSS
chain 2: ENVLTQSPASLSASPGERVTITCSASSSVSYMHWYQQKPGQAPKLWIYDTSKLASGVPSRFSGSGSGNDHTLTISSMEPEDFATYYCFQGSVYPFTFGQGTKVTVLGGGGSGGGGSGGGGSGGGGSQVTLKESGPGLVQPGQTLSLTCAFSGFSLSTSGMGVGWIRQPPGKGLEWLAHIWWDDDKRYNPALKSRLTISKDTSKNQVYLQMNSLDAEDTAVYYCARMELWSYYFDYWGQGTLVTVSSGGGGSGGGGSEIVLTQSPSTLSVSPGERATFSCRASQSIGTNIHWYQQKPGKPPRLLIKYASESISGIPDRFSGSGSGTEFTLTISSVQSEDFAVYYCQQNNNWPTTFGPGTKLTVLRTVAAPSVFIFPPSDEQLKSGTASVVCLLNNFYPREAKVQWKVDNALQSGNSQESVTEQDSKDSTYSLSSTLTLSKADYEKHKVYACEVTHQGLSSPVTKSFNRGECGGDKTHTCPPCPAPEAAGGPSVFLFPPKPKDTLMISRTPEVTCVVVDVSHEDPEVKFNWYVDGVEVHNAKTKPREEQYNSTYRVVSVLTVLHQDWLNGKEYKCAVSNKALPAPIEKTISKAKGQPREPQVYTLPPSRDELTKNQVSLWCLVKGFYPSDIAVEWESNGQPENNYKTTPPVLDSDGSFFLYSKLTVDKSRWQQGNVFSCSVMHEALHNRFTQKSLSLSPGGGGGSGGGGSDIQMTQSPSTLSASVGDRVTITCQASQSISSHLNWYQQKPGKAPKLLIYKASTLASGVPSRFSGSGSGTEFTLTISSLQPDDFATYYCQQGYSWGNVDNVFGGGTKVTVLGGGGSGGGGSGGGGSGGGGSEVQLLESGGGLVQPGGSLSLSCAASGFSFSSGYDMCWVRQAPGKGLEWIACIAAGSAGITYDANWAKGRFTISRDNSKNTLYLQMNSLRAEDTAVYYCARSAFSFDYAMDLWGQGTLVTVSS
notes: penta-miniGNC; D1 αCD3, D2 αCD19, D3 αEGFR (Fab), D4 α4-1BB, D5 αPD-L1
Human PD-L1
  Kd: 2.72 nM
CD19
  Kd: 5.05 nM
Human 4-1BB
  Kd: 26.8 nM
Human CD3
  Kd: 15.8 nM

B3: SI-68P15 (other)
chain 1: EIVMTQSPSTLSASVGDRVIITCQASESISSWLAWYQQKPGKAPKLLIYEASKLASGVPSRFSGSGSGAEFTLTISSLQPDDFATYYCQGYFYFISRTYVNSFGQGTKLTVLGGGGSGGGGSGGGGSGGGGSEVQLVESGGGLVQPGGSLRLSCAASGFTISTNAMSWVRQAPGKGLEWVGVITGRDITYYASWAKGRFTISRDTSKNTVYLQMNSLRAEDTAVYYCARDGGSSAITSNNIWGQGTLVTVSSGGGGSGGGGSQVQLQQSGPGLVKPSETLSITCTVSGFSLTNYGVHWIRQAPGKGLEWLGVIWSGGNTDYNTPFTSRFTITKDNSKNQVYFKLRSVRADDTAIYYCARALTYYDYEFAYWGQGTLVTVSSASTKGPSVFPLAPSSKSTSGGTAALGCLVKDYFPEPVTVSWNSGALTSGVHTFPAVLQSSGLYSLSSVVTVPSSSLGTQTYICNVNHKPSNTKVDKRVEPKSCDKTHTCPPCPAPEAAGGPSVFLFPPKPKDTLMISRTPEVTCVVVDVSHEDPEVKFNWYVDGVEVHNAKTKPREEQYNSTYRVVSVLTVLHQDWLNGKEYKCAVSNKALPAPIEKTISKAKGQPREPQVYTLPPSRDELTKNQVSLSCAVKGFYPSDIAVEWESNGQPENNYKTTPPVLDSDGSFFLVSKLTVDKSRWQQGNVFSCSVMHEALHNHYTQKSLSLSPGGGGGSGGGGSDVVMTQSPSSVSASVGDRVTITCQASQNIRTYLSWYQQKPGKAPKLLIYAAANLASGVPSRFSGSGSGTDFTLTISDLEPGDAATYYCQSTYLGTDYVGGAFGGGTKLTVLGGGGSGGGGSGGGGSGGGGSEVQLVESGGGLVQPGGSLRLSCTASGFTISSYHMQWVRQAPGKGLEYIGTISSGGNVYYASSARGRFTISRPSSKNTVDLQMNSLRAEDTAVYYCARDSGYSDPMWGQGTLVTVSS
chain 2: B2 chain 2
notes: penta-miniGNC; D1 αCD3** (humanized framework 1), D2 αCD19, D3 αEGFR (Fab), D4 α4-1BB, D5 αPD-L1
Human PD-L1
  Kd: 0.4 nM
Human 4-1BB
  Kd: 17.1 nM
Human CD3
  Kd: 22.4 nM
